Key:
BP-A31 cells = assay: Stability of the biological activity of FGF-2 after storage at 4° C., MTT assay (Example 4); format: cell-based, mouse; conditions: MTT assay 24 h, FIG. 1
Description: The materials used are on the one hand the three pharmaceutical forms of Example 3, in which the support material consists of different proportions by weight of methylidene malonate oligomers and polymers, and on the other hand free (non-formulated) FGF-2. After storage of the 3 pharmaceutical forms and the free FGF-2 for 7, 14 and 21 days at 4° C., the stimulating activity on cell proliferation is measured by the MTT assay described in Example 2 for 24 h compared with a control culture with no growth factor added.
The results are shown graphically in FIG. 1, in which the storage time at 4° C., expressed in days, is plotted on the abscissa and the percentage proliferation is plotted on the ordinate.

BP-A31 fibroblasts = assay: MTT proliferation assay of form containing SPC (Example 7); format: cell-based, mouse; conditions: BP-A31 fibroblasts over 24 h vs untreated control; 3.1% added to the well, final theoretical SPC concentration 15 μM
Description: SPC was formulated in a support material containing 60% by weight of methylidene malonate oligomer and 40% by weight of methylidene malonate polymer prepared from 1-ethoxycarbonyl-1-ethoxycarbonylmethyleneoxycarbonylethene monomer (100 μg of SPC formulated per 40 mg of material, as described in Example 2). The pharmaceutical form according to the invention, containing SPC or its control solvent, was then brought into contact with BP-A31 fibroblasts according to the protocol described in Example 1. The effect of adding 3.1% to the well, generating a final theoretical SPC concentration of 15 μM, is shown here. The stimulation of cell proliferation was quantified by the MTT assay. The results, expressed as the percentage proliferation of the cells over 24 h compared with an untreated control culture, are reported in Table 6 below.

For “free (non-formulated) FGF-2: free (non-formulated) basic fibroblast growth factor, human recombinant FGF-2”, the “stability of biological activity on storage” value (BP-A31 cells) was “rapidly losing its biological activity (after 7 days)”.

For CCCCCCCCCCCCC/C=C/[C@@H](O)[C@@H](N)COP(=O)([O-])OCC[N+](C)(C)C [Free SPC, sphingosylphosphorylcholine], the “Proliferation (%)” value (BP-A31 fibroblasts) was 158.8 ± 3.2%.

— patent US20040076601A1, “Pharmaceutical form comprising a cell regulating factor and/or a cell proliferation promoter” (priority 2000, published 2004)
